From US20230272055A1 (Incyte, published 2023)

B1: anti-mutCALR antibody clone 40 (antibody, human IgG1, lambda, V domains shown)
VH: EVQLVQSGAEVKKPGASVKVSCKVSGYTLTESSMHWVRQAPGKGLEWMGLVDPEDGETIYAQKFQGRVTMTEDTSTDTAYMELSSLRSEDTAVYYCAREEWSGDGDDAFDIWGQGTMVTVSS
VL: QSVLTQPPSVSAAPGQKVTISCSGSSSNIGSYSVSWYQQLPGTAPKLLIYDNNKRPSGIPDRFSGSNSGTSATLGITGLQTGDEADYYCGTWDSSLSAWVFGGGTKLTVLG
notes: human IgG1
B2: anti-mutCALR antibody clone 32 (antibody, human IgG1, lambda, V domains shown)
VH: QVQLVQSGAEVKKPGATVKISCKVSGYSFTDYFIHWVQQAPGKGLAWVGLVDPEDGETIYAEKFQGRVTITADTSTDTAYMELSSLRSEDTAVYYCATPGGILTDPDAFDIWGQGTMVTVSS
VL: QSALTQPASVSGSPGQSITISCTGTSSDVGGYNYVSWYQQHPGKAPKLMIYEVSNRPSGVSNRFSGSKSGNTASLTISGLQAEDEADYYCSSYTSSSTPYVFGTGTKVTVLG
notes: human IgG1
B3: anti-mutCALR antibody clone 36 (antibody, human IgG1, lambda, V domains shown)
VH: B2 VH
VL: QSALTQPRSVSGSPGQSVTISCAGTGSDVGGYNYVSWYQHHPGKAPKLMIYDVNKRPSGVPDRFSGSKSGNTASLTISGLQAEDEADYYCSSYTSSSTFYVFGTGTKVTVLG
notes: human IgG1
B4: anti-mutCALR antibody clone 15 (antibody, human IgG1, lambda)
heavy: not shown
light: SYELTQPPSVSVAPGKTARITCGGDNIGSKSVHWYQQKPGQAPVLVVYDDSDRPSGIPERFSGSNSGNTATLTINRVEAGDEADYYCQVWDSSNDLLIFGGGTKLTVLGQPKAAPSVTLFPPSSEELQANKATLVCLISDFYPGAVTVAWKADSSPVKAGVETTTPSKQSNNKYAASSYLSLTPEQWKSHRSYSCQVTHEGSTVEKTVAPTECS
notes: human IgG1
B5: anti-mutCALR antibody clone 17 (antibody, human IgG1, lambda)
heavy: not shown
light: SYVLTQPPSVSVAPGQTARITCGGSDIGDEIVHWYQQKPGQAPVLVVYDDSDRPSGIPERFSGSNSGNTATLTISRAQAGDEADYYCQVWDSSSDHLIFGGGTKLTVLGQPKAAPSVTLFPPSSEELQANKATLVCLISDFYPGAVTVAWKADSSPVKAGVETTTPSKQSNNKYAASSYLSLTPEQWKSHRSYSCQVTHEGSTVEKTVAPTECS
notes: human IgG1
B6: anti-mutCALR antibody clone 51 (antibody, human IgG1, lambda, V domains shown)
VH: EVQLVQSGAEVKKPGSSVKVSCKASGGTFSSYAISWVRQAPGQGLEWMGGIIPIFGTANYAQKFQGRVTITADESTSTAYMELSSLRSEDTAVYYCASSPLRGSGWYWHYYYGMDVWGQGTTVTVSS
VL: SYELTQPPSVSVAPGKTARITCGGNKIGTKSVHWYQQKPGQAPVLVIYQDSKRPSGIPERFSGSNSGNTATLTISGTQAMDEADYYCQAWGSSTVVFGGGTKLTVLG
notes: human IgG1
B7: anti-mutCALR antibody clone 34 (antibody, human IgG1, lambda, V domains shown)
VH: B2 VH
VL: QSALTQPASVSGSPGQSITISCTGTSSDVGGYNYVSWYQQHPGKAPKLMIYEVSNRPSGVSNRFSGSKSGNTASLTISGLQAEDEADYYCSSYTSSSTYVFGTGTKVTVLG
notes: human IgG1

What follows are binders tested against T1, Recombinant MBP-mutCALR Type 1 fusion protein (human) (assay: SPR, IgG captured, 1:1 fit, Exp. 2).
T1 construct: custom made at Cepter; also called recombinant mutCALR protein
Summary of the method: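 Antibodies captured via amine-coupled anti-human IgG (Fc) on a CM4 chip; recombinant MBP-mutCALR Type 1 fusion protein as analyte. Run at 25 °C in Tris-buffered saline pH 7.2, 0.005% P20, 1 mM CaCl₂. Multiple-cycle kinetics fitted to a 1:1 binding model.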

Binder	Kd	koff	kon
B1	0.352 nM	0.00121 s⁻¹	3.44e+06 M⁻¹ s⁻¹
B2	1.71 nM	0.00314 s⁻¹	1.84e+06 M⁻¹ s⁻¹
B3	1.22 nM	0.00166 s⁻¹	1.36e+06 M⁻¹ s⁻¹
B4	1.02 nM	0.00249 s⁻¹	2.44e+06 M⁻¹ s⁻¹
B5	0.249 nM	0.00127 s⁻¹	5.12e+06 M⁻¹ s⁻¹
B6	0.823 nM	0.000524 s⁻¹	636000 M⁻¹ s⁻¹

The binders below were run against T1, Recombinant MBP-mutCALR Type 1 fusion … (assay: SPR, IgG captured, 1:1 fit, Exp. 1).

Binder	Kd	koff	kon
B1	1.04 nM	0.00538 s⁻¹	5.17e+06 M⁻¹ s⁻¹
B2	5.63 nM	0.00768 s⁻¹	1.36e+06 M⁻¹ s⁻¹
B7	2.56 nM	0.00581 s⁻¹	2.27e+06 M⁻¹ s⁻¹
B3	2.95 nM	0.00205 s⁻¹	695000 M⁻¹ s⁻¹
B4	6.03 nM	0.215 s⁻¹	3.57e+07 M⁻¹ s⁻¹
B5	2.22 nM	0.00347 s⁻¹	1.56e+06 M⁻¹ s⁻¹
B6	4.64 nM	0.00109 s⁻¹	235000 M⁻¹ s⁻¹
